For orientation: koff means the first-order rate constant of dissociation. As usually defined, the kon is a measure of how fast the partners come together. The term Kd denotes the free concentration of one partner at which half of the binding sites on the other are occupied at equilibrium, for simple one-to-one binding. For orientation: EC50 means the concentration at which the effect is half-maximal.

Experiment [1] addresses T1, recombinant human TACE catalytic domain (Arg215-Val477-GlySer-His6) (human, UniProt P78536 215-477).
T1 construct: The methods' limits are used here; also called isolated TACE catalytic domain
The experiment is described as follows: SPR (Biacore T100, 37 C): N-TIMP-3 amine-coupled to a CM5 chip, TACE catalytic domain injected (traces labelled 0.5 to 5 nM) [panel C, upper left]. The protocol:
(§1) Results represent the mean values of blank-subtracted technical triplicates per concentration variable. All experiments were performed on a Biacore T100 (GE Healthcare) at 37° C. with a flow-rate of […]. Binding constants were calculated using Biacore T100 Evaluation Software (1:1 binding model; Rmax <200 RU; tc >1×10⁸; Chi²<0.5 RU².
In general terms: In SPR one partner is held on a chip, and binding of the other changes the refractive index at the surface.

Experiment [2] deals with T2, recombinant human TACE ectodomain (Arg215-Arg651) (human, UniProt P78536 215-651). The experiment is described as follows: cell-based or functional assay.
T2 sequence (P78536 215-651): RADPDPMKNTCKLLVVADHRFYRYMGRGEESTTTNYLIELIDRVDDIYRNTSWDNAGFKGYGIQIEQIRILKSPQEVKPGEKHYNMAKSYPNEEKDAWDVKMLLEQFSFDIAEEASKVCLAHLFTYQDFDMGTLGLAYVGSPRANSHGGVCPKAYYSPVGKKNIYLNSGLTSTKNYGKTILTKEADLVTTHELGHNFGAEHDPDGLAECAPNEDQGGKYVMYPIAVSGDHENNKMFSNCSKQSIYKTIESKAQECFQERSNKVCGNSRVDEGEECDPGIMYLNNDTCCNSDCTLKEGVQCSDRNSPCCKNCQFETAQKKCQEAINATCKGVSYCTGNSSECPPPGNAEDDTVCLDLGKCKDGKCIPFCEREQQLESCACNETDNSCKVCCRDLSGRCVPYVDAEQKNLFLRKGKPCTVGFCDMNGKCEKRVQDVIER
Experiment [3] concerns the target T2, recombinant human TACE ectodomain …. The experiment is described as follows: SPR (Biacore T100, 37 C): N-TIMP-3 amine-coupled to a CM5 chip, TACE ectodomain injected (traces labelled 5 to 50 nM) [panel C, upper right]. The protocol: as §1
In experiment [4] the target is T1, recombinant human TACE catalytic domain …. The experiment is described as follows: SPR (Biacore T100, 37 C); N-TIMP-3 amine-coupled to CM5 chip, titrated TACE injected; 1:1 model. The protocol:
as §1

The target of experiment [5] is T2, recombinant human TACE ectodomain …. Described as above. The protocol:
as §1

Experiment [6] shares this target. The experiment is described as follows: SPR; ratio of the KD for the isolated catalytic domain to the KD for the ectodomain. The protocol: as §1
For experiment [7] the target is unchanged. The experiment is described as follows: competition ELISA: immobilised TACE ectodomain pre-incubated with titrated N-TIMP-3, then probed with D1(A12) FAb [panel B].
Another experiment addresses cell surface TACE (human, UniProt P78536 215-824). The experiment is described as follows: cell-based or functional assay.
The target of experiment [8] is T1, recombinant human TACE catalytic domain …. The experiment is described as follows: cell-based or functional assay.
Experiment [9] concerns the target T2, recombinant human TACE ectodomain …. The experiment is described as follows: cell-based or functional assay. This is another data set of the same source.
The target in experiment [10] is recombinant human TACE catalytic domain (Arg215-Val477-GlySer-His6) (human) (UniProt P78536). The experiment is described as follows: cell-based or functional assay.
Sequence of recombinant human TACE catalytic domain (Arg215-Val477-GlySer-His6) (human) (P78536 other isoform, or with tags, fused parts or gaps limits assumed): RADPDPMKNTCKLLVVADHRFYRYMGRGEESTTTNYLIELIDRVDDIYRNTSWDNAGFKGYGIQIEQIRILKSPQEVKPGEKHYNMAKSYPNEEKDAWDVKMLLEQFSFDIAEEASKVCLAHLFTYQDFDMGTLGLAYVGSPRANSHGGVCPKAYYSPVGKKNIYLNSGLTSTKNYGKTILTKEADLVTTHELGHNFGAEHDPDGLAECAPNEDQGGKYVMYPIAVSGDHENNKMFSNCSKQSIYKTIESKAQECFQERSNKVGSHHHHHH
For experiment [11], the target named is recombinant human TACE ectodomain (Arg215-Arg651) (human) (UniProt P78536). The experiment is described as follows: cell-based or functional assay.
Sequence of recombinant human TACE ectodomain (Arg215-Arg651) (human) (P78536 215-651): as the sequence (P78536 215-651) above
Experiment [12] addresses T2, recombinant human TACE ectodomain …. The experiment is described as follows: inverted titration ELISA; ratio of the EC50 for the catalytic domain to the EC50 for the ectodomain. For orientation: ELISA stands for enzyme-linked immunosorbent assay.
Experiment [13] has as its target T1, recombinant human TACE catalytic domain …. The experiment is described as follows: cell-based or functional assay. This is another data set of the same source.
Experiment [14] concerns the target T2, recombinant human TACE ectodomain …. The experiment is described as follows: SPR (Biacore T100, 37 C): D1(A12) FAb amine-coupled to a CM5 chip, TACE ectodomain injected (traces labelled 0.25 to 6 nM) [panel C, lower right]. The protocol:
as §1

For experiment [15], the target named is T1, recombinant human TACE catalytic domain …. The experiment is described as follows: inverted titration ELISA.
The target of experiment [16] is T2, recombinant human TACE ectodomain …. The experiment is described as follows: inverted titration ELISA.
Experiment [17] deals with T1, recombinant human TACE catalytic domain …. The experiment is described as follows: SPR (Biacore T100, 37 C): D1(A12) FAb amine-coupled to a CM5 chip, TACE catalytic domain injected (traces labelled 1 to 15 nM) [panel C, lower left]. The protocol: as §1
Experiment [18] shares this target. The experiment is described as follows: SPR (Biacore T100, 37 C); FAb amine-coupled to CM5 chip, titrated TACE injected; 1:1 model. The protocol: as §1
For experiment [19], the target named is T2, recombinant human TACE ectodomain …. Described as above. The protocol:
as §1

The target is the same in experiment [20]. The experiment is described as follows: competition ELISA: 100 nM immobilised TACE ectodomain pre-incubated with titrated D1(A12) FAb, then probed for N-TIMP-3 binding [panel A].

T1 sequence (P78536 other isoform, or with tags, fused parts or gaps limits assumed): as the sequence (P78536 other isoform, or with tags, fused parts or gaps limits assumed) above
Sequence of cell surface TACE (P78536 215-824): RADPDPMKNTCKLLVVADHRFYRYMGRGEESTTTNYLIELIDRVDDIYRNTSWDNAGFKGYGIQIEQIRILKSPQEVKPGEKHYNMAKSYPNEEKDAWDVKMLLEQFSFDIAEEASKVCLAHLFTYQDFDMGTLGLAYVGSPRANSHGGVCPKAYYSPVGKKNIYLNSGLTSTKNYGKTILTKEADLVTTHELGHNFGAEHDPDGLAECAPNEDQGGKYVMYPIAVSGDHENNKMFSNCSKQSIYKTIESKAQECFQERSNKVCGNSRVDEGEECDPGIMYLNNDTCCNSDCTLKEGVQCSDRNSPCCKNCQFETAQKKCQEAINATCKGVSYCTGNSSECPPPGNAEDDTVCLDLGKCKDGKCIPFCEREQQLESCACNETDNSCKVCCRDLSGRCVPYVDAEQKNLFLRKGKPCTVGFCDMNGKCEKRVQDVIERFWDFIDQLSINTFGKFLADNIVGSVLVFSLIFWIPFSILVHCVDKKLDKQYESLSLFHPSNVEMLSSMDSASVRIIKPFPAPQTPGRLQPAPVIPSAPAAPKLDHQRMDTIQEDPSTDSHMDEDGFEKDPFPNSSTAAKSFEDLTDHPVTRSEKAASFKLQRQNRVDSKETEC

B1: N-TIMP-3 (other, UniProt P35625 24-144, looked up)
chain: CTCSPSHPQDAFCNSDIVIRAKVVGKKLVKEGPFGTLVYTIKQMKMYRGFTKMPHVQYIHTEASESLCGLKLEVNKYQYLLTGRVYDGKMYTGLCNFVERWDQLTLSQRKGLNYRYHLGCN
notes: domain: N-terminal fragment; also called amino-terminal domain of TIMP-3
For the molecule B1, in experiment [1], the koff stood at 2.1e-05 s⁻¹ and the kon came to 100000 M⁻¹ s⁻¹. Besides, in experiment [2], the “IC50, quenched-fluorescent (QF) peptide cleavage assay” value turned out to be 3.2 nM. Moreover, in experiment [3], the koff was determined as 5.2e-05 s⁻¹ and the kon worked out at 7200 M⁻¹ s⁻¹. The Kd in experiment [4] worked out at 0.211 nM. Moreover, in [5], the Kd was 7.22 nM. Besides, in experiment [6], the “ΔKD (KD Cat/KD Ecto)” value amounted to 0.03 fold. For the same molecule, the “IC50 (read off the curve)” value in experiment [7] is roughly 20 nM. In the experiment with cell surface TACE, the “IC50 (nM), PMA-stimulated shedding of Amphiregulin from PC3 cells” value is 53.3 nM; the “IC50 (nM), PMA-stimulated shedding of HB-EGF-AP from HeLa cells” value worked out at 47.3 nM; the “IC50 (nM), PMA-stimulated shedding of TGF-α from IGROV-1 cells” value amounted to 44.5 nM; the “IC50 (nM), PMA-stimulated shedding of TNF-α from TOV21G cells” value came out at 48.5 nM. For the same molecule, in the experiment with cell surface TACE, the “IC50 (nM), mean value of the five cell shedding assays” value was 48.6 nM and the “IC50 (nM), shedding of TNFR1a from IGROV-1 cells” value came out at 49.5 nM. Further, in experiment [8], the “IC50 (nM), QF-peptide assay” value came out at 0.6 nM. Besides, in [9], the “Delta (IC50 ectodomain against IC50 catalytic domain)” value was determined as 5.2 fold and the “IC50 (nM), QF-peptide assay” value was found to be 3.1 nM.

B2: D1(A12) scFv (scFv, part only; not given: linker and tags, not shown: small tags and cut ends)
scFv, part: EVQLVESGGGLVRPGGSLRLSCAASGFTFSSYAMSWVRQAPGKGLEWVSAISGSGGSTYYADSVKGRFTISRDNTKNSLYLQMTSLRADDTAFYYCVKDFGPGYGTGWFDYWGPGTLVTVSASDIQMTQSPSSLSASVGDRVTITCRASQSISSYLNWYQQKPGKAPKLLIHDASSLQSGVPSRFSGSGSGTDFTLTISSLQPEDFATYYCQQSFSIPLTFGGGTKMDIKR
B2: the IC50, solution-phase QF-peptide assay (wild-type scFv) in experiment [10] was determined as 2.3 nM; in [11], 0.89 nM.

B3: D1(A12) FAb (Fab, V domains shown)
VH: EVQLVESGGGLVRPGGSLRLSCAASGFTFSSYAMSWVRQAPGKGLEWVSAISGSGGSTYYADSVKGRFTISRDNTKNSLYLQMTSLRADDTAFYYCVKDFGPGYGTGWFDYWGPGTLVTVSA
VL: DIQMTQSPSSLSASVGDRVTITCRASQSISSYLNWYQQKPGKAPKLLIHDASSLQSGVPSRFSGSGSGTDFTLTISSLQPEDFATYYCQQSFSIPLTFGGGTKMDIKR
notes: Expressed in E. coli periplasm, purified on Protein G; also called monovalent D1(A12) human FAb
Turning to B3, the “ΔEC50 (EC50 Cat/EC50 Ecto)” value in [12] came out at 12.1 fold. In addition, the “IC50, cleavage of GST-TNF-α (SDS-PAGE densitometry)” value in experiment [13] is 125 nM; in experiment [2], 73.9 nM. Further, the “ΔIC50 = IC50 Cat:N-TIMP-3 / IC50 Cat:D1(A12), QF-peptide assay” value in [13] was determined as 1.35 fold. For the same molecule, the “ΔIC50 = IC50 Ecto:N-TIMP-3 / IC50 Ecto:D1(A12), QF-peptide assay” value in experiment [2] was determined as 5.75 fold. Further, the koff in [14] came to 0.00024 s⁻¹; in experiment [17], 0.00058 s⁻¹. The kon in experiment [14] amounted to 530000 M⁻¹ s⁻¹; in experiment [17] it was 110000 M⁻¹ s⁻¹. Moreover, the “ΔKD (KD Cat/KD Ecto)” value in experiment [6] is 11.3 fold. Besides, the results for the EC50 in [15] and in [16] were 11.1 nM and 0.92 nM, respectively. For the same molecule, the “IC50 (nM), QF-peptide assay” value came to 0.54 nM in experiment [8] and 0.45 nM in experiment [9]. Moreover, the “Delta (IC50 ectodomain against IC50 catalytic domain)” value in experiment [9] came to 0.8 fold. Moreover, the Kd came out at 5.21 nM in experiment [18] and 0.461 nM in experiment [19]. Also, the “IC50 (read off the curve)” value in experiment [20] was roughly 10 nM.

B4: D1(A12) human IgG1 (antibody, V domains shown)
VH: B3 VH
VL: B3 VL
Regarding B4, in the experiment with cell surface TACE, the “Delta (IC50 N-TIMP-3 against IC50 D1(A12) IgG1), Amphiregulin, PC3” value is 5.7 fold; the “Delta (IC50 N-TIMP-3 against IC50 D1(A12) IgG1), HB-EGF-AP, HeLa” value turned out to be 6 fold; the “Delta (IC50 N-TIMP-3 against IC50 D1(A12) IgG1), TGF-α, IGROV-1” value amounted to 4.7 fold; the “Delta (IC50 N-TIMP-3 against IC50 D1(A12) IgG1), TNF-α, TOV21G” value came to 4.3 fold. Further, in the experiment with cell surface TACE, the “Delta (IC50 N-TIMP-3 against IC50 D1(A12) IgG1), TNFR1a, IGROV-1” value was 4.7 fold; the “Delta, mean value of the five cell shedding assays” value came out at 5.1 fold; the “IC50 (nM), PMA-stimulated shedding of Amphiregulin from PC3 cells” value worked out at 9.3 nM; the “IC50 (nM), PMA-stimulated shedding of HB-EGF-AP from HeLa cells” value was 7.9 nM. Also, in the experiment with cell surface TACE, the “IC50 (nM), PMA-stimulated shedding of TGF-α from IGROV-1 cells” value amounted to 9.4 nM; the “IC50 (nM), PMA-stimulated shedding of TNF-α from TOV21G cells” value was found to be 11.2 nM; the “IC50 (nM), mean value of the five cell shedding assays” value was determined as 9.6 nM; the “IC50 (nM), shedding of TNFR1a from IGROV-1 cells” value turned out to be 10.4 nM.

The record behind these values is US20140050738A1 (CANCER RESEARCH TECHNOLOGY, published 2014).
